Assay: soluble on expression in E. coli; label from the status in PepcDB or PDB records

| Sequence | soluble on expression in E. coli |
| --- | --- |
| MGSSHHHHHHSSGLVPRGSHMLESSGNRDIAQVVTENNKNYLVLYASQTGTAEDYAKKFSKELVAKFNLNVMCADVENYDFESLNDVPVIVSIFISTYGEGDFPDGAVNFEDFICNAEAGALSNLRYNMFGLGNSTYEFFNGAAKKAEKHLSAAGAIRLGKLGEADDGAGTTDEDYMAWKDSILEVLKDELGVEATGEESSIRQYELVVHTDIDAAKVYMGEMGRLKSYENQKPPFDAKNPFLAAVTTNRKLNQGTERHLMHLELDISDSKIRYESGDHVAVYPANDSALVNQLGKILGADLDVVMSLNNLDEESNKKHPFPCPTSYRTALTYYLDITNPPRTNVLYELAQYASEPSEQELLRKMASSSGEGKELYLSWVVEARRHILAILQDCPSLRPPIDHLCELLPRLQARYYSIASSSKVHPNSVHICAVVVEYETKAGRINKGVATNWLRAKEPAGENGGRALVPMFVRKSQFRLPFKATTPVIMVGPGTGVAPFIGFIQERAWLRQQGKEVGETLLYYGCRRSDEDYLYREELAQFHRDGALTQLNVAFSREQSHKVYVQHLLKQDREHLWKLIEGGAHIYVCGDARNMARDVQNTFYDIVAELGAMEHAQAVDYIKKLMTKGRYSLDVWS | soluble |
| MGSDKIHHHHHHMNKTDIAQDTINAAVWTACDTFRGTVDPSVYKDYVLTMLFLKYVSDVWQDHYDDYKTKHGNKPGLIEELLKNERFVLPHRANFYTLYDQRHRPGNGERIDTALHAIEDANLGKLRDVFQDISFNANKLGEEQQKNDLLRHLLEDFAKPALNLRPSRIGQLDIIGNAYEYLIKNFASSSGKKAGEFYTPPEVSALMARLMDPQQGDEICDPTCGSGSLLLKCGRLIRERTGSGKYALYGQEAIGSTWALAKMNMFLHGEDNHRIEWGDTIRNPKLLAGNHLKHFDIVVANPPFSLEKWGHDSADTDPHDRFRRGLPPRTKGDYAFILHMIATMKPRTGRMAVVVPHGVLFRGAAEGRIRQKLIEENLLDVVIGLPEKLFYGTGIPAAVLVFRTKKKDKKVLFIDASRQYQDGKNQNLLRESDLQRILDTVQARQNVDKYAYLASPDEIAGHDYNLNIPRYVDTFEEEAEIDLMAVRREREQLKGELATLEMQMAAYLKELGYE | not soluble |
| MSEKGFSGGCQCGAVRFHAGKLGRPSICHCRMCQKHFGNFFGALVTADQAHLAWTRGQPTLFRSSARIHRGFCNKCGTPLTYHYPGGVEIAIGAFDHPEQIEPQAQVNIHKRMPWIEQLFSKPAIEQSVDEAEITSYQHPDHDTATWPPEGP | not soluble |
| RPNKGAQQEDERIIQAFDKAIQYMSKRKIGALITIERNTGLDEYIETGIDLDADITGELLINIFIPNTPLHDGAVIIKNEKIAVASAYLPLSESNLIPKEFGTRHRAAVGISEVSDAITIVVSEETGDVSLTLNNELIPGL | not soluble |
| MGSDKIHHHHHHMASFIASDQDVKNFLTAPSMNDQEGIGFAYATDEAVLKALIPAPLKLMAPVVCGYVVHMGKPTFSAPYLEESLFALVSYKDKMMGAYPINLLLHGPGAESGVIAGREGAGIPKKLADDIELRRNDNSATATVERHGKTLLNVSWTAGELNDPSIMKQFAGQLALGKEAEMNSFFYKYDIDQHEDGTNHFSNVQLVATQLRSLADQVEPGNLSIQLESTDDDPFGELKVLKPLGAAWFHFDTSVMFNTLKLDEVDAATTMPKLLTGRYDRSFFNPKAATYII | not soluble |
| MGSDKIHHHHHHMNEKTSVSSDRRDFWDGRAREFSEHAASTGYPRAFLRILKPRKSWTVLDMACGGGTIAIPLANRVKFITAVDFSMRMLEIVEQRCLAGKITNVKTLQGRWEDDWDDLGIGVHDVAIASRSLLSETAMDSIAKLNRAATKAVYISVAVGSGPFDWRLLEAADRERNTRPDYIFYYNLLYEMGIPANVSFIPESYRNSWESHEEAFEDQLWMFQGMTGEEEEKVRAYLREHLVWVKGHWQLPYSRNYYWAVLYWTKDREIGS | not soluble |
| MAHHHHHHMLTSENPAERAGQAGQAIRPPPSPVPDGTRPSDSSRGDSSVSPLSTTGISSSSALDAPIVQSTQPSEKGLRSETISLGTALPNEQPKERSESKAKQGSSTSEEVAESPDDSGDAVEKEKKGDVGPKATTSLSSTTSNPPVTQTTPRASSAEPPPTETELQTGEETSTENVTITKRNNTTTPGDSDGSTAVSHTTSPLLLLLVVVECAAAAAVVAA | soluble |
| MDIPRIFTISESEHRIHNPFTEEKYATLGRVLRMKPGTRILDLGSGSGEMLCTWARDHGITGTGIDMSSLFTAQAKRRAEELGVSERVHFIHNDAAGYVANEKCDVAACVGATWIAGGFAGAEELLAQSLKPGGIMLIGEPYWRQLPATEEIAQACGVSSTSDFLTLPGLVGAFDDLGYDVVEMVLADQEGWDRYEAAKWLTMRRWLEANPDDDFAAEVRAELNIAPKRYVTYARECFGWGVFALIARLEHHHHHH | soluble |
| MLIHMKSRKMNLNKLEDGGSWFSRLKQFLQGEPQNQEELVSLLRDAQIRSLINSETLAMIEGAILFSKMRVRDIMLPKNQMVCINKDDDFKHIISIVTQTGHSRFPVTGENSDEVVGILHAKDLLKYQPENMESFDLLDICRQVTFVPESRRLDSLLSEFRSNRNHMAIVVDEYGEVSGFVTIEDIIEQIIGDIEDEFDIDEDAYIKTHEGHCYIIKAHTPIEEFNEQLNADFSDETYDTIGGIVLNKFGYLPQRGEVIIIDDFEFKVLNADSRRIKLLECLDKRSPEKLNSTVEG | not soluble |
| DERLLAREVQKMRFRRSTYSSPQPATQQPANGSERKNDSDNLVGAENHSAETPTDNRSAEVEQPYYPAKYEEELLRLIIRYGERKLLIYRHEEGAEKQTPSEVALAYYIKSDLNADGVDIGTDVFRQILDEAAEQSFDSGFVAAKYFRDHPNAQISHIAVELLTNRYALSRIHYGKGDESNAEEDLQMRVERELLTIKNVFIQVQIRALQKEIAQAQKAGDIELQLEIMNELRSMNEMKSELAHRLGDRTVLP | not soluble |
| AASSLDELVALCKRRGFIFQSSEIYGGLQGVYDYGPLGVELKNNLKQAWWRRNVYERDDMEGLDASVLTHRLVLHYSGHEATFADPMVDNAKARYWTPPRYFNMMFQDLRGPRGGRGLLAYLRPETAQGIFVNFKNVLDATSRKLGFGIAQIGKAFRNEITPRNFIFRVREFEQMEIEYFVRPGEDEYWHRYWVEERLKWWQEMGLSRENLVPYQQPPESSAHYAKATVDILYRFPHGSLELEGIAQRTDFDLGSHTKDQEALGITARVLRNEHSTQRLAYRDPETGKWFVPYVIEPSAGVDRGVLALLAEAFTREELPNGEERIVLKLKPQLAPIKVAVIPLVKNRPEITEYAKRLKARLLALGLGRVLYEDTGNIGKAYRRHDEVGTPFAVTVDYDTIGQSKDGTTRLKDTVTVRDRDTMEQIRLHVDELEGFLRERLRW | soluble |
| MAHHHHHHMSRLLKHYGSCKTAFFCCDIQEKFMGRIANSANCVFVANRFAGLHTALGTAHSVYIVTEQYPKGLGATSADIRLPPDAHVFSKKRFAMLVPQVMPLVDLPEVEQVVLWGFETHVCILQTAAALLDMKKKVVIAVDGCGSQSQGDHCTAIQLMQSWSGDGCYISTSESILMQLLKDASDPVFKTIAPLMKQTHPIRI | soluble |
| GVTKKLKISRTATCKGCKGLGGNEGSAKECSDCRGRGIKVRVIRMGPMVQQMQSHCDSCNGEGSTFLEKDRCKKCNGKKQVKEDEI | not soluble |
| MFHLRTCAAKLRPLTASQTVKTFSQNRPAAARTFQQIRCYSAPVAAEPFLSGTSSNYVEEMYCAWLENPKSVHKSWDIFFRNTNAGAPPGTAYQSPLPLSRGSLAAVAHAQSLVEAQPNVDKLVEDHLAVQSLIRAYQIRGHHVAQLDPLGILDADLDSSVPADIISSTDKLGFYGLDESDLDKVFHLPTTTFIGGQESALPLREIIRRLEMAYCQHIGVEFMFINDLEQCQWIRQKFETPGIMQFTNEEKRTLLARLVRSTRFEEFLQRKWSSEKRFGLEGCEVLIPALKTIIDKSSENGVDYVIMGMPHRGRLNVLANVIRKELEQIFCQFDSKLEAADEGSGDVKYHLGMYHRRINRVTDRNITLSLVANPSHLEAADPVVMGKTKAEQFYCGDTEGKKVMSILLHGDAAFAGQGIVYETFHLSDLPSYTTHGTVHVVVNNQIGFTTDPRMARSSPYPTDVARVVNAPIFHVNSDDPEAVMYVCKVAAEWRSTFHKDVVVDLVCYRRNGHNEMDEPMFTQPLMYKQIRKQKPVLQKYAELLVSQGVVNQPEYEEEISKYDKICEEAFARSKDEKILHIKHWLDSPWPGFFTLDGQPRSMSCPSTGLTEDILTHIGNVASSVPVENFTIHGGLSRILKTRGEMVKNRTVDWALAEYMAFGSLLKEGIHIRLSGQDVERGTFSHRHHVLHDQNVDKRTCIPMNHLWPNQAPYTVCNSSLSEYGVLGFEAGLRMASPNALVLWEAQFGDFHNTAQCIIDQFICPGQAKWVRQNGIVLLLPHGMEGMGPEHSSARPERFLQMCNDDPDVLPDLKEANFDINQLYDCNWVVVNCSTPGNFFHVLRRQILLPFRKPLIIFTPKSLLRHPEARSSFDEMLPGTHFQRVIPEDGPAAQNPENVKRLLFCTGKVYYDLTRERKARDMVGQVAITRIEQLSPFPFDLLLKEVQKYPNAELAWCQEEHKNQGYYDYVKPRLRTTISRAKPVWYAGRNPAAAPATGNKKTH | soluble |
| AHHHHHHGSKLDDSFLTLFPEEDKVYEVLLSTKSNFTPIGVRRQGRVLKFRIFEGRSFRDLEECNYAIIQVVDDTELLAGLAYNLDVKFDVTQGIKVPIRRIEGYPWVEGEVKCRIVKVKDSIGESIAKDCTLTPIYIGIEKRVPRPISRADNVLLELAVLGTRLIVKKKRGLQIKDVAQKIEELYELYRKLGGKSEIAGKIMDILRKHYL | soluble |
| MRHYKTLRYYETVFAVKPTLSEEEMKKKFEQVKEFIKQKGGEILYEEDWGMRQLAYPIQKFNNARYFLVQFKTENPQLPNELDFQLKIDEDVIRWLNIQIKESEVKKNAQ | soluble |
| MENLKETVDIVVNSRYPEMNREGRELLAQVLIRKELEKGEMLLNEGQISRHMVFVGKGMLRQFYYKNGKDVTEHFSYEGCILMCIESLLKQEPTHLMAEALEPAVVYMLPYDVLQKLLEQSKEINAFYRKVLEYSLIVSQIKADSWRFETARERYNLLLHHHPEIIKRAPLSHIASYLLMTPETLSRVRSGVL | not soluble |
| MAHHHHHHMGIGWEKLDNWEDVPDAGGKYGPLRGPSLVDLQGHVFAIAEAHCKDGGDCSDVGFTGIASKYLDLIGVADPTEILTADASIFGADLLKEGSEVISARNGITRPTTLVLGDSVYVLPGNYSHTGPQVGGTNERGLLLLKGTLTDEGGRKKIKWNETHVVEPQGRGDSRSLTELVGGGGSGAVLRDGTLVFPMQAKDKDGTSVLLSMRFPNSGNKWELSSETPGKGCRDPTLVKWEEKKDDERLFMMAHCAGDYYDVYRSTPHGVNWYTSGQPITRVWGNSHNRKGTVSGVDPPPQSLRKRS | not soluble |
| HMSSGNASWFQAIKAKKLNTPPPKFEGSGVPDNENMKPSQQHGYWRRQARFKPGKGGRCPVPDAWYFYYTGTGPAADMNWGDTQDGIVWMAAKGADTKSRSNQGTRDPDKFDQYPLRFSDGGPDGNFRWDFIPL | soluble |
| MGSDKIHHHHHHMSPSIYPKSNYPDAAILSRLAQQIKGWGKALGFARVGICDTDLTSEEIKLQTWLDKGYHGEMAYMASHGMMRARPQELHPGTVRVISVRMDYLPPEAGFATNLTDPNLGYISRYAGGRDYHKLIRARLKKLGDHISAELIALGFDAADFRPFVDSAPVLERPLAEKAGIGWTGKHSLILNHDSGSWFFLGELFINLPLPVDIPIQEACNTCVACMTSCPTGAIVEPYVVDGRRCISYLTIELQGAIPEEFRPLMGNRIYGCDDCQLVCPINRQAPLTTEIDFHIRPQLKQPDLLSLFAWSEAEFLKQTEGSAIRRIGHKRWLRNIAVALGNAPANPIILEALTNRQESADVDEMVLEHIQWAIDAQQSRLAASNTLVQQKSRRQTARMVRIIEKGLPRDA | not soluble |
